In patent US20110262525A1, “METHODS OF TREATMENT” (SCHERING CORPORATION, priority 2006, published 2011):
Marks after values point to notes of the source that are not given here.

Columns and labels:
[1] = tested on: squamous cell carcinoma cell line SCC 15; experiment: Cell-Titer Glo proliferation assay, SCC15; type: cell-based, human; details: 0.000256-100 nM antibody, 96 hours
Procedure: (§1) Cell proliferation was assayed using a Cell-Titer Glo assay (Promega Corp.; Madison, Wis.). A cell-titer glo assay generates a “glow” luminescent signal in the presence of ATP from viable cells, which can be detected with a plate reader luminometer or CCD imaging device.
(§2) In this assay, squamous cell carcinoma cells, SCC9, SCC25 and SCC15, were trypsinized, counted and resuspended at 25,000 cells/ml in 10% HI-FBS RPMI containing NEAA, L-Glu, MEM Vitamins and PS. […] (2500 cells) were added to each well BD Falcon 96 well black, clear bottom TC treated plate. Cells were allowed to attach and spread overnight at 37° C. Then, 10% RPMI medium was replaced with […] 2% RPMI, containing the LCF/HCA antibody at the appropriate concentration, the following day. The anti-IGF1R antibody concentrations used in each experiment were 100 nM, 20 nM, 5 nM, 0.8 nM, 0.16 nM, 0.032 nM, 0.0064 nM, 0.00128 nM, and 0.000256 nM. All treatments were prepared in 2% RPMI at 20× concentration and serial diluted. Every test point was prepared in triplicate on separate assay plates. As mentioned above, cell proliferation was measured using the CellTiter-Glo Luminescent Cell Viability Assay (Promega) at 96 hours post treatment. Luminescence was detected on a Wallac 420 Plate Reader with stacker.

KT-11 xenograft (Wilms) = experiment: PPTP in vivo xenograft KT-11; details: KT-11 (Wilms) xenograft, 0.5 mg per mouse ip twice weekly for four weeks
Procedure: (§3) The PPTP includes a molecularly characterized in vitro panel of cell lines (n=27) and in vivo panel of xenografts (n=61) representing most of the common types of childhood solid tumors and childhood ALL (acute lymphoblastic leukemia). LCF/HCA anti-IGF1R antibody was tested against the PPTP in vitro panel at concentrations ranging from 0.01 nM to 100 nM; and was tested against the PPTP in vivo panel at a dose of 0.5 mg per mouse administered twice weekly for four weeks via intraperitoneal injection. Three measures of antitumor activity were used: 1) response criteria modeled after the clinical setting; 2) treated-to-control (T/C) tumor volume at day 21; and 3) a time to event (4-fold increase in tumor volume) measure based on the median EFS of treated and control lines (intermediate activity required EFS (event-free survival) T/C>2, and high activity additionally required a net reduction in median tumor volume at the end of the experiment).
(§4) Stage 1 testing involved testing an agent across the entire PPTP panel of childhood cancer xenograft lines at its maximum tolerated dose (MTD) or at a dose selected based on PK/PD (pharmacokinetic/pharmacodynamic) studies using adult preclinical models.
(§5) In vivo solid tumor testing: For each xenograft line, 10 mice bearing subcutaneous (SC) tumors initiated treatment when the tumors were between 0.2-0.5 cm^3 in volume. Two perpendicular tumor diameters were measured at once weekly intervals with digital vernier calipers. Assuming tumors to be spherical, volumes were calculated from the formula (π/6)×d3, where d represented the mean diameter.
(§6) Drug: LCF/HCA was dissolved in 20mM sodium acetate pH 5 buffer containing 150 mM sodium chloride, and administered intraperitoneally twice weekly for 4 consecutive weeks at a dose of 0.5 mg per animal. […]
(§7) Median Group Response: Each individual mouse in each treatment group was assigned a response score (see Tables above) and a median score for the treatment group was calculated and then each treatment group was assigned an overall response according to the table below. […]

[2] = tested on: NB-1771 xenograft (Neuroblastoma); experiment: PPTP in vivo xenograft NB-1771; details: NB-1771 (Neuroblastoma) xenograft, 0.5 mg per mouse ip twice weekly for four weeks
Procedure: as §3, §4, §5, §6, §7

[3] = tested on: SCC15 human squamous cell carcinoma tumor cells; experiment: SCC15 squamous cell carcinoma xenograft in SCID mice; type: in vivo, mouse; details: 0.1 mg/injection ip two times per week, seven times starting on day 10
Procedure: Immune-deficient SCID mice (strain SCID) were inoculated with SCC15 human squamous cell carcinoma tumor cells in the right flank, subcutaneously, along with Matrigel (1:1 cells:gel). In these experiments, 5×10^6 cells/mouse in a 1:1 mix with regular matrigel were inoculated. The LCF/HCA anti-IGF1R antibody was inoculated intraperitoneally (ip) (0.1 mg/injection). Mice were dosed with the antibody two times per week, by intraperitoneal injection, seven times starting on day 10 with the last dose on day 31. Tumor size was measured with calipers and the data was entered into the labcat program. Mice were grouped with average size of 100 mm^3. Tumor size and body weight were measured twice weekly.

[4] = tested on: squamous cell carcinoma cell line SCC 25; experiment: Cell-Titer Glo proliferation assay, SCC25; type: cell-based; details: 0.000256-100 nM antibody, 96 hours
Procedure: as §1, §2

[5] = tested on: D645 xenograft (Glioblastoma); experiment: PPTP in vivo xenograft D645; parameters: key to EFS activity notation (high, intermediate, indeterminate): high (!); intermediate (#); indeterminate (^)
Procedure: as §3, §4, §5
Drug: LCF/HCA was dissolved in 20mM sodium acetate pH 5 buffer containing 150 mM sodium chloride, and administered intraperitoneally twice weekly for 4 consecutive weeks at a dose of 0.5 mg per animal. The antibody was provided to each testing site in coded vials for blinded testing according the PPTP's standard operating procedures.
Median Group Response: Each individual mouse in each treatment group was assigned a response score (see Tables above) and a median score for the treatment group was calculated and then each treatment group was assigned an overall response according to the table below.
Statistical Methods: Event-free survival (EFS) distributions of each treatment group were compared to the EFS distribution of the respective control group using the exact log rank test. P-values were 2-sided & were not adjusted for multiple comparisons given the exploratory nature of this study. P-values<0.05 were considered to be significant.

[6] = tested on: ALL-19 xenograft (ALL B-precursor); experiment: PPTP in vivo leukemia xenograft ALL-19; details: ALL-19 (ALL B-precursor) xenograft; 0.5 mg per mouse ip twice weekly for four weeks
Procedure: (§8) The PPTP includes a molecularly characterized in vitro panel of cell lines (n=27) and in vivo panel of xenografts (n=61) representing most of the common types of childhood solid tumors and childhood ALL (acute lymphoblastic leukemia). LCF/HCA anti-IGF1R antibody was tested against the PPTP in vitro panel at concentrations ranging from 0.01 nM to 100 nM; and was tested against the PPTP in vivo panel at a dose of 0.5 mg per mouse administered twice weekly for four weeks via intraperitoneal injection. […]
(§9) In vivo acute lymphoblastic leukemia testing: For each xenograft line, 8 mice were inoculated with 3-5×10^6 mononuclear cells purified from the spleens of secondary recipient mice. Engraftment was monitored weekly by flow cytometry, and treatment was initiated when the proportion of human CD45+ cells in the peripheral blood reached 1%. The proportion of human CD45+ cells in the peripheral blood was monitored weekly throughout the course of treatment. […]
as §7

[7] = tested on: GBM2 xenograft (Glioblastoma); experiment: PPTP in vivo xenograft GBM2
Procedure: as §3, §4, §5, §6, §7

[8] = tested on: squamous cell carcinoma cell line SCC 9; experiment: Cell-Titer Glo proliferation assay, SCC9; type: cell-based; details: 0.000256-100 nM antibody, 96 hours
Procedure: as §1, §2

[9] = tested on: ALL-2 xenograft (ALL B-precursor); experiment: PPTP in vivo leukemia xenograft ALL-2; details: ALL-2 (ALL B-precursor) xenograft; 0.5 mg per mouse ip twice weekly for four weeks
Procedure: as §8, §9, §7

[10] = 0.5 mg per mouse ip twice weekly for four weeks
[11] = day 21, 0.5 mg per mouse ip twice weekly for four weeks

B1: LCF/HCA: fully human anti-IGF1R antibody comprising the mature 19D12/15H12 light chain F (LCF) and mature heavy chain A (HCA) (antibody, V domains shown)
VH: EVQLVQSGGGLVHPGGSLRLSCAASGFTFSSFAMHWVRQAPGKGLEWISVIDTRGATYYADSVKGRFTISRDNAKNSLYLQMNSLRAEDMAVYYCARLGNFYYGMDVWGQGTTVTVSS
VL: EIVLTQVPDFQSVTPKEKVTITCRASQSIGSSLHWYQQKPDQSPKLLIKYASQSLSGVPSRFSGSGSGTDFTLTINSLEAEDAAAYYCHQSSRLPHTFGGGTKVEIKRT
- proliferation of squamous cell carcinoma cell line [1]: inhibited
- EFS T/C (KT-11 xenograft (Wilms)): 1
- Median Final RTV (KT-11 xenograft (Wilms)): >4
- Tumor Volume T/C (KT-11 xenograft (Wilms); day 21): 0.99
- EFS T/C [2]: 1.1
- Median Final RTV [2]: >4
- Tumor Volume T/C ([2]; day 21): 0.64
- tumor growth [3]: less than that observed in mice only receiving a control injection without the antibody
- proliferation of squamous cell carcinoma cell line [4]: inhibited
- EFS T/C [5, 10]: 2.2
- EFS activity notation (high, intermediate, indeterminate) [5, 10]: #
- Median Final RTV [5, 10]: >4#
- Overall Group Response [5, 10]: PD2 (1 < MS ≦ 3)
- Tumor Volume T/C [5, 11]: 0.58
- EFS T/C [6]: 1.5
- Median Final RTV [6]: >25
- EFS T/C [7, 10]: 1.4
- Median Final RTV [7, 10]: >4
- Tumor Volume T/C [7, 11]: 0.73
- proliferation of squamous cell carcinoma cell line [8]: inhibited
- EFS T/C [9]: 0.7
- Median Final RTV [9]: >25
